Test results reported in publication PMC9871560, “Truncated-semaphorin3A is a potential regulatory molecule to restore immune homeostasis in immune-mediated diseases” (Frontiers in Pharmacology, 2022).

B1: Truncated-sema3A (T-sema3A) (domain or fragment, human, UniProt Q14563 21-516, looked up)
chain: NYQNGKNNVPRLKLSYKEMLESNNVITFNGLANSSSYHTFLLDEERSRLYVGAKDHIFSFDLVNIKDFQKIVWPVSYTRRDECKWAGKDILKECANFIKVLKAYNQTHLYACGTGAFHPICTYIEIGHHPEDNIFKLENSHFENGRGKSPYDPKLLTASLLIDGELYSGTAADFMGRDFAIFRTLGHHHPIRTEQHDSRWLNDPKFISAHLISESDNPEDDKVYFFFRENAIDGEHCGKATHARIGQICKNDFGGHRSLVNKWTTFLKARLICSVPGPNGIDTHFDELQDVFLMNFKDPKNPVVYGVFTTSSNIFKGSAVCMYSMSDVRRVFLGPYAHRDGPNYQWVPYQGRVPYPRPGTCPSKTFGGFDSTKDLPDDVITFARSHPAMYNPVFPMNNRPIVIKTDVNYQFTQIVVDRVDAEDGQYDVMFIGTDVGTVLKVVSIPKETWYDLEEVLLEEMTVFREPTAISAMELSTKQQQLYIGSTAGVAQLPLHR
notes: signal peptide in the construct; human semaphorin3A, amino acids 1-516 of the parental sema3A, with S257C to make an artificial disulfide dimerization site; Secreted into the medium; Without reducing agent it runs as a homodimer (~140 kDa double band) together with some monomer (~68 kDa); also called truncated semaphorin3A; source: HEK293 stably expressing (lentiviral vector NSPI), serum-free …
B2: Parental semaphorin3A (P-sema3A) (ligand, human, UniProt Q14563 21-771, looked up)
chain: NYQNGKNNVPRLKLSYKEMLESNNVITFNGLANSSSYHTFLLDEERSRLYVGAKDHIFSFDLVNIKDFQKIVWPVSYTRRDECKWAGKDILKECANFIKVLKAYNQTHLYACGTGAFHPICTYIEIGHHPEDNIFKLENSHFENGRGKSPYDPKLLTASLLIDGELYSGTAADFMGRDFAIFRTLGHHHPIRTEQHDSRWLNDPKFISAHLISESDNPEDDKVYFFFRENAIDGEHSGKATHARIGQICKNDFGGHRSLVNKWTTFLKARLICSVPGPNGIDTHFDELQDVFLMNFKDPKNPVVYGVFTTSSNIFKGSAVCMYSMSDVRRVFLGPYAHRDGPNYQWVPYQGRVPYPRPGTCPSKTFGGFDSTKDLPDDVITFARSHPAMYNPVFPMNNRPIVIKTDVNYQFTQIVVDRVDAEDGQYDVMFIGTDVGTVLKVVSIPKETWYDLEEVLLEEMTVFREPTAISAMELSTKQQQLYIGSTAGVAQLPLHRCDIYGKACAECCLARDPYCAWDGSACSRYFPTAKRRTRRQDIRNGDPLTHCSDLHHDNHHGHSPEERIIYGVENSSTFLECSPKSQRALVYWQFQRRNEERKEEIRVDDHIIRTDQGLLLRSLQQKDSGNYLCHAVEHGFIQTLLKVTLEVIDTEHLEELLHKDDDGDGSKTKEMSNSMTPSQKVWYRDFMQLINHPNLNTMDEFCEQVWKRDRKQRRQRPGHTPGNSNKWKHLQENKKGRNRRTHEFERAPRSV
notes: human parental semaphorin3A; Secreted into the medium; The preparation holds monomer (~95 kDa), dimer (~160 kDa) and ~70 kDa fragments from cleavage by furin; also called parental sema3A; original sema3A; source: HEK293, serum-free culture medium, purified (Ni-NTA agarose)
B3: CD72 recombinant protein, extracellular part (amino acids 117-359) (domain or fragment, UniProt P21854 117-359, looked up)
chain: RYLQVSQQLQQTNRVLEVTNSSLRQQLRLKITQLGQSAEDLQGSRRELAQSQEALQVEQRAHQAAEGQLQACQADRQKTKETLQSEEQQRRALEQKLSNMENRLKPFFTCGSADTCCPSGWIMHQKSCFYISLTSKNWQESQKQCETLSSKLATFSEIYPQSHSYYFLNSLLPNGGSGNSYWTGLSSNKDWKLTDDTQRTRTYAQSSKCNKVHKTWSWWTLESESCRSSLPYICEMTAFRFPD
notes: CD72, extracellular part, amino acids 117-359; source: HEK293 stably expressing (lentiviral vector NSPI), purified (Ni-NTA agarose)

Experiments:
[1] = molecular target: the molecule itself; experiment: SDS-PAGE without reducing agent, immunoblot; purified proteins on SDS-PAGE with or without dithiothreitol, immunoblotted with polyclonal goat anti-human sema3A; monomer to disulfide-linked dimer
[2] = molecular target: B1; experiment: ELISA; homemade ELISA; 5 ug/mL purified CD72 coated on a MaxiSorp plate overnight at 4 C; 0-25 ug/mL purified P- or T-sema3A added for 3 h at 4 C; detected with polyclonal goat anti-sema3A and anti-goat HRP; Kd from the one site total binding equation (GraphPad Prism); conditions: both partners purified
[3] = molecular target: B2; experiment: as above; conditions: both partners purified

Row | Binder | stoichiometry N [1] | Kd [2] [nM] | Kd [3] [nM]
1 | B1 | 2 | – | –
2 | B2 | 2 | – | –
3 | B3 | – | ~4.85 | ~7.3
